According to patent US20250114463A1, “LIVER-TARGETED DRUG AND USE THEREOF” (HANMI PHARM. CO., LTD., priority 2021, published 2025):
Bridges are numbered along the chain shown (N, C = ends). Where no end group is shown, it is not given here. [ ]: non-standard residue; d: D form. The star is where a group is joined. Acetyl(2-(4-imidazolyl)) = O=C(Cc1c[nH]cn1)*; Aib = CC(C)(N)C(=O)O

T1: human GIP receptor (human, UniProt P48546 22-466)
T1 sequence (looked up): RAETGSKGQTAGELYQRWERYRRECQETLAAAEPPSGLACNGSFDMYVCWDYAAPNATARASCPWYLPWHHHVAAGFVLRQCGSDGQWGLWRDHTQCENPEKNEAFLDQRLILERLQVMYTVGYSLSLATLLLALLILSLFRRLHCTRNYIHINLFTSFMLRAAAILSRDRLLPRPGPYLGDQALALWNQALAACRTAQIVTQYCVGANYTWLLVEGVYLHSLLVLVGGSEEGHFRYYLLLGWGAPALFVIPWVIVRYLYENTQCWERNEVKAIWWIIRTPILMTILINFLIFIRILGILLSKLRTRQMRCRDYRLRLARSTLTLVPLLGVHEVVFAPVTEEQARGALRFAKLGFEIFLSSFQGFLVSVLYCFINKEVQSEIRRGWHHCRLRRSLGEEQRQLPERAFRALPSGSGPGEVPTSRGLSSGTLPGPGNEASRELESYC

B1: triple agonist of SEQ ID NO: 81 (peptide)
peptide: [Acetyl(2-(4-imidazolyl))][Aib]QGTFTSDYSKYLDEKRQKEFVQWLLNTC
modifications: bridge 16-20; not fully specified (C-terminus)
B2: triple agonist of SEQ ID NO: 82 (peptide)
peptide: [Acetyl(2-(4-imidazolyl))][Aib]QGTFTSDYSKYLDEKRQKEFVQWLLDTC
modifications: bridge 16-20; not fully specified (C-terminus)
B3: triple agonist of SEQ ID NO: 83 (peptide)
peptide: [Acetyl(2-(4-imidazolyl))][Aib]EGTFTSDYSIAMDEIHQKDFVNWLLAQC
modifications: bridge 16-20; not fully specified (C-terminus)
B4: triple agonist of SEQ ID NO: 84 (peptide)
peptide: [Acetyl(2-(4-imidazolyl))][Aib]EGTFTSDYSIAMDEIHQKDFVDWLLAEC
modifications: bridge 16-20; not fully specified (C-terminus)
B5: triple agonist of SEQ ID NO: 9 (peptide)
peptide: H[Aib]QGTFTSDVSKYLDGQAAQEFVAWLLAGC
modifications: not fully specified (C-terminus)
B6: triple agonist of SEQ ID NO: 85 (peptide)
peptide: [Acetyl(2-(4-imidazolyl))][Aib]QGTFTSDYSIAMDEIHQKDFVNWLLAQC
modifications: bridge 16-20; not fully specified (C-terminus)
B7: triple agonist of SEQ ID NO: 86 (peptide)
peptide: [Acetyl(2-(4-imidazolyl))][Aib]QGTFTSDYSKYLDEKRQKEFVNWLLAQC
modifications: bridge 16-20; not fully specified (C-terminus)
B8: triple agonist of SEQ ID NO: 87 (peptide)
peptide: [Acetyl(2-(4-imidazolyl))][Aib]QGTFTSDYSIAMDEIHQKDFVNWLLNTC
modifications: bridge 16-20; not fully specified (C-terminus)
B9: triple agonist of SEQ ID NO: 88 (peptide)
peptide: [Acetyl(2-(4-imidazolyl))][Aib]QGTFTSDYSKYLDEKRQKEFVQWLLNTKC
modifications: bridge 16-20; not fully specified (C-terminus)
B10: triple agonist of SEQ ID NO: 89 (peptide)
peptide: [Acetyl(2-(4-imidazolyl))][Aib]QGTFTSDYSKYLDEKRQKEFVQWLLDTKC
modifications: bridge 16-20; not fully specified (C-terminus)
B11: triple agonist of SEQ ID NO: 90 (peptide)
peptide: [Acetyl(2-(4-imidazolyl))][Aib]EGTFTSDYSIAMDEIHQKDFVNWLLAQKC
modifications: bridge 16-20; not fully specified (C-terminus)
B12: triple agonist of SEQ ID NO: 91 (peptide)
peptide: [Acetyl(2-(4-imidazolyl))][Aib]EGTFTSDYSIAMDEIHQKDFVDWLLAEKC
modifications: bridge 16-20; not fully specified (C-terminus)
B13: triple agonist of SEQ ID NO: 92 (peptide)
peptide: [Acetyl(2-(4-imidazolyl))][Aib]QGTFTSDYSIAMDEIHQKDFVNWLLAQKC
modifications: bridge 16-20; not fully specified (C-terminus)

Molecular target: human GLP-1 receptor (human, UniProt P43220 24-463)
Experiment: cell-based or functional assay

Binder | in vitro Activity Compared to Native Peptide (%), vs GLP-1
B1 | 7.8%
B2 | 9.5%
B3 | 47.3%
B4 | 4.2%
B5 | 32.1%
B6 | 4.3%
B7 | 28.4%
B8 | 0.9%
B9 | 9.6%
B10 | 7.1%
B11 | 7.4%
B12 | 31.9%
B13 | 0.8%

Molecular target: T1, human GIP receptor
Experiment: cell-based or functional assay

Binder | in vitro Activity Compared to Native Peptide (%), vs GIP
B1 | < 0.1%
B2 | < 0.1%
B3 | 0.4%
B4 | < 0.1%
B5 | < 0.1%
B6 | 0.3%
B7 | 0.2%
B8 | < 0.1%
B9 | < 0.1%
B10 | < 0.1%
B11 | < 0.1%
B12 | 0.3%
B13 | 0.4%

Molecular target: human GCG receptor (human, UniProt P47871 26-477)
Sequence (P47871 26-477): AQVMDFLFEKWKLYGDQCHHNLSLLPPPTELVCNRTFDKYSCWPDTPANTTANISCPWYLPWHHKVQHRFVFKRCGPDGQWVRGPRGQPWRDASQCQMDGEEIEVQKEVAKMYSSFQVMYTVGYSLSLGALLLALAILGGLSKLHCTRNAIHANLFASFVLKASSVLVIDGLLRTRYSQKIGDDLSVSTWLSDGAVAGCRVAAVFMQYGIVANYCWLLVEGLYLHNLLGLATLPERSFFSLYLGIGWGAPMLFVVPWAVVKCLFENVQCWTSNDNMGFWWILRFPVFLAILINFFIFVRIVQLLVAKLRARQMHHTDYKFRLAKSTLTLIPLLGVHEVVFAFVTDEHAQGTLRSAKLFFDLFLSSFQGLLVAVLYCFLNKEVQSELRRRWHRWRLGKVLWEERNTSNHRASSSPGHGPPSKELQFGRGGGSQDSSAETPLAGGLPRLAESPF
Experiment: cell-based or functional assay

Binder | in vitro Activity Compared to Native Peptide (%), vs Glucagon
B1 | 0.3%
B2 | 1.1%
B3 | 1.3%
B4 | < 0.1%
B5 | 0.13%
B6 | < 0.1%
B7 | 0.4%
B8 | < 0.1%
B9 | 0.3%
B10 | 0.7%
B11 | < 0.1%
B12 | 16.8%
B13 | < 0.1%
